Measured values published in patent US20170129961A1 (Amgen, published 2017).
Residue numbers refer to the chain shown, from its start.

B1: CD70-36 (scFv)
scFv: EVQLLESGGGLVQPGGSLRLSCAASGFTFSSYAMSWVRQAPGQGLEWVSAISGSGGRTYYADSVKGRFTISRDNSKNTLYLQMNSLRAEDTAVYYCAKHDYSNYPYFDYWGQGTLVTVSSGGGGSGGGGSGGGGSEIVLTQSPGTLSLSPGERATLSCRASQSVRGSYLAWYQQKPGQAPRLLIYSASSRATGIPDRFSGSGSGTDFTLTISRLEPEDFAVYYCQQYGDSPFTFGPGTKVEIK
notes: As m32
B2: CD70-38 (scFv)
scFv: EVQLLESGGGVVQPGRSLRLSCAASGFTFSSYAMSWVRQAPGKGLEWVSAISGSGGRTFYADSVEGRFTISRDNSKNTLYLQMNSLRAEDTAVYYCAKHDYSNYPYFDYWGQGTLVTVSSGGGGSGGGGSGGGGSEIVLTQSPGTLSLSPGERATLSCRASQSIRSNYLAWYQQKPGQAPRLLIYGASSRATGIPDRFSGSGSGTDFTLTISRLEPEDFAVYYCQQYGSSPPSFGQGTKVEIK
notes: As m32
B3: CD70-39 (scFv)
scFv: EVQLLESGGGVVQPGRSLRLSCAASGFTFSSYAMSWVRQAPGKGLEWVSAISGSGGGTFYADSVEGRFTISRDNSKNTLYLQMNSLRAEDTAVYYCARHDYSNYPYFDYWGLGTLVTVSSGGGGSGGGGSGGGGSEIVLTQSPGTLSLSPGERATLSCRASQSVRSSYLAWYQQKPGQAPRLLIYGASSRATGIPDRFSGSGSGTDFTLTISRLEPEDFAVYSCQQYGDLPFTFGPGTKVEIK
notes: As m32
B4: CD70-40 (scFv)
scFv: B3 scFv with V11M, R16G, G57R, R98K, L112Q, V164I, S223Y, E241D
notes: As m32
B5: CD70-41 (scFv)
scFv: B3 scFv with V11M, R16G, G57R, A97T, R98K, L112Q, S223Y, E241D
notes: As m32
B6: CD70-42 (scFv)
scFv: EVQLLESGGGLVQPGGSLRLSCAASGFTFSTYAMSWVRQAPGKGLEWVSLISGSGGRTYYADSVKGRFTISRDNSKNTLYLQMNSLRAEDTAVYYCAKHDYSNYPYFDYWGQGTLVTVSSGGGGSGGGGSGGGGSEIVLTQSPGTLSLSPGERATLSCRASQGVRSSYLAWYQQKPGQAPRLLIYGASSRATGIPDRFSGSGSGTDFTLTINRLEPEDFAVYYCQQYGSSPPTFGGGTKVDIK
notes: As m32
B7: CD70-43 (scFv)
scFv: B2 scFv with I164V, S212N, S233T, Q236G, E241D
notes: As m32
B8: CD70-54 (scFv)
scFv: EVQLLESGGGLVQPGGSLRLSCAASGFTFSIYAMSWVRQAPGKGLEWVSAIGDSGGSTFYADSVKGRFTISRDNSKNTLYLQMNSLRAEDTAVYYCAKHDYSNYPYFDYWGQGTLVTVSSGGGGSGGGGSGGGGSEIVLTQSPGTLSLSPGERATLSCRASQSVRSSYVAWYQQKPGQAPRLLIYGASSRATGIPDRFSGSGSGTDFTLTISRLEPEDFAVYYCQQYGDLPFTFGPGTRLEIK
notes: As m32
B9: CD70-66 (scFv)
scFv: B1 scFv with G44C, P236C
notes: As m32
B10: CD70-74 (scFv)
scFv: B1 scFv with Q43K, R57S, Y59F, K65Q, M83V, K98R, S167N, S186G, D229Y, E241D
notes: As m32
B11: CD70-20 (scFv)
scFv: B6 scFv with S167D, P180L, N212S, Y223H, S230T, V240L, D241E
notes: As m32
B12: CD70-29 (scFv)
scFv: EVQLLESGGGLVQPGGSLRLSCAASGFNFASYAMSWVRQAPGKGLEWVSVISGSGGRTHYADSGKGRFTISRDNSKNTLYLQMNSLRAEDTAVYYCAKHDYSNYPYFDYWGQGTLVTVSSGGGGSGGGGSGGGGSEIVLTQSPGTLSLSPGERATLSCRASQSVRSSYLAWYQQKPGQAPRLLIFGASSRATGIPDRFSGSESGTDFTLTINRLEPEDFAVYYCEQYGNSPPTFGGGTKVEIK
notes: As m32
B13: CD70-33 (scFv)
scFv: EVQLLESGGGLVQPGGSLRLSCAASGFTFSTYAMSWVRQAPGKGLEWVSTISDSGGSTFYADSVMGRFTISRDNSKNTLYLQMNSLRAEDTAVYYCARHDYSNYAFFDYWGQGTLVTVSSGGGGSGGGGSGGGGSEIVLTQSPATLSVSPGERATLSCRASQSVSSNLAWYQQKPGQAPRLLIYGASSRATGIPDRFSGSGSGTDFTLTISSLQAEDVAVYYCQQYYSTPFTFGPGTKVEIK
notes: As m32
B14: CD70-34 (scFv)
scFv: B13 scFv with S188T, D195A, D205E, T209A, S212R, Q214E, A215P, V218F, P235G
notes: As m32
B15: CD70-37 (scFv)
scFv: EVQLLESGGGLVQPGGSLRLSCAASGFTFSSYAMSWVRQAPGKGLEWVSAIGDGGGYTYYADSVKGRFTISRDNSKNTLSLLMNSLRAEDTAVYYCARHDYSNYPYFDYWGQGTLVTVSSGGGGSGGGGSGGGGSEIVLTQSPGTLSLSPGERATLSCRASQGVRSSYFAWYQQKPGQAPRLLIYGASTRATGIPARFSGSGSGTDFTLTISRLEPEDFAVYYCQQYGSSPPTFGQGTKVEIK
notes: As m32
B16: CD70-44 (scFv)
scFv: EVQLLESGGGLVQPGGSLRLSCAASGFTFSSYAMSWVRQAPGKGLEWVSVISDSGGITDFADSVKGRFIISRDNSRNTLYLQMNSLRAEDTAVYFCARHDYSNYFFFDYWGQGTLVTVSSGGGGSGGGGSGGGGSDIQMTQSPSSLSASVGDRVTITCRASQDISNYLNWYQQKSGKAPELLIYAASSLQSGVPSRFSGSGSGTDFTLTISSLQPEDFATYYCQQSYISPPTFGQGTKVEIK
notes: As m32
B17: CD70-61 (scFv)
scFv: B16 scFv with I69T, V154I, D163S, S175P, E180K, Y184S, S229I, E240D
notes: As m32
B18: CD70-67 (scFv)
scFv: B16 scFv with G44C, Q235C
notes: As m32
B19: CD70-48 (scFv)
scFv: EVQLLESGGGLVQPGGSLRLSCAASGFTFSSYAMSWVRQAPGKGLEWVSVISDSGGITDFADSVKGRFTISRDNSRNTLYLQMNSLRAEDTAVYFCARHDYSNYFFFDYWGQGTLVTVSSGGGGSGGGGSGGGGSDIQMTQSPSSLSASVGDRVTITCRASQGISNYLAWYQQKPGKVPKLLIYAASILQSGVPSKFSGSGSGTDFTLTISSLQPEDFAIYYCQQYFAYPITFGQGTRLEIK
notes: As m32
B20: CD70-68 (scFv)
scFv: B19 scFv with G44C, Q235C
notes: As m32
B21: CD70-52 (scFv)
scFv: QVQLQESGPGLVKPSETLSLTCTVSGGSVSTDGYYWSWIRQPPGKGLEWIGYIYYSGSTNYNPSLKSRVTISVDTSKNQFSLKLSSVTAADTAVYYCARGIGLGFEYWGQGTLVTVSSGGGGSGGGGSGGGGSSYVLTQLSSVSVAPGQTARITCGGNNIGSKSVHWYQQKPGQAPVLVVYDDSDRPSGIPERFSGSNSGNTATLTISRVEAGDEADYYCQVWDRSSDQDVVFGGGTKLTVL
notes: As m32
B22: CD70-51 (scFv)
scFv: B21 scFv with S141T, Y218F
notes: As m32
B23: CD70-69 (scFv)
scFv: B21 scFv with G46C, S85I, G235C
notes: As m32

How the values were obtained:
[1] = target: T1, full-length mouse CD70 with C-terminal V5 tag (mouse, UniProt O55237 1-195); assay: FACS on CHO cells, periplasmic scFv
T1 construct: On transfected CHO cells; also called murine CD70
T1 sequence: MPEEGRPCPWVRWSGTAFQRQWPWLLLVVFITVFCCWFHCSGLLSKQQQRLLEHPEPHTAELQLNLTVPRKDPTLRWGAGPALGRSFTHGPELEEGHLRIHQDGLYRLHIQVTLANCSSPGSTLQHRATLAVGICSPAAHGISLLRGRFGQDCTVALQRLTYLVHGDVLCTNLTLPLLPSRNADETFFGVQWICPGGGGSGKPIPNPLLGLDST
Experimental: (§1) All antibodies were diluted in PBS/1.5% FCS. As negative control, cells were incubated with PBS/2% FCS instead of the periplasmic extract. The samples were measured by flow cytometry.

human CD70 = target: T2, human CD70 (human, UniProt P32970 1-193); assay: FACS on CHO cells, periplasmic scFv
T2 construct: also called hu CD70; CD27L
T2 sequence: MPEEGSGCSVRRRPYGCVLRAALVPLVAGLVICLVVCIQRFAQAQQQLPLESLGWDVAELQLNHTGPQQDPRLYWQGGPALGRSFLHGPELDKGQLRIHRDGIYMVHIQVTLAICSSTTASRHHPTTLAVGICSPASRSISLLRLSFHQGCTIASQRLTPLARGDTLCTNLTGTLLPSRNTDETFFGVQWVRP
Experimental: as §1

Row | Binder | binding result [1] | binding result (human CD70)
1 | B1 | no binding | binds
2 | B2 | no binding | binds
3 | B3 | no binding | binds
4 | B4 | no binding | binds
5 | B5 | no binding | binds
6 | B6 | no binding | binds
7 | B7 | no binding | binds
8 | B8 | no binding | binds
9 | B9 | no binding | binds
10 | B10 | no binding | binds
11 | B11 | no binding | binds
12 | B12 | no binding | binds
13 | B13 | no binding | binds
14 | B14 | no binding | binds
15 | B15 | no binding | binds
16 | B16 | no binding | binds
17 | B17 | no binding | binds
18 | B18 | no binding | binds
19 | B19 | no binding | binds
20 | B20 | no binding | binds
21 | B21 | no binding | binds
22 | B22 | no binding | binds
23 | B23 | no binding | binds
